Data as given in the supplement of paper PMC7125110.
± gives the standard error. Variants at the floor of the assay were thinned out.

B1: glmS ribozyme (parent)
chain: AUAAAAGCGCCAGAACUACAGAAAUGUAGUUGACGAGGAGGAGGUUUAUCGAAUUUUCGGCGGAUGCCUCCAAA

Tests used:
Details in all cases: with glucosamine-6-phosphate
glucosamine-6-phosphate [1] = variants of: B1; assay: self-cleavage kobs at 40 uM GlcN6P; higher = faster cleavage; RNA array
How it was run: (§1)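 Glucosamine-6-phosphate in HEPES/KCl/Mg(OAc)2 buffer, at 40 μM to 10 mM, was flowed over barcoded ribozyme variants transcribed in situ by E. coli RNA polymerase on sequenced MiSeq chips. Tracking was through a hybridised Cy3 probe at 37 °C. kobs, kcat and KM came from exponential decay fits and weighted Michaelis–Menten fits of normalised per-tile medians.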

glucosamine-6-phosphate [2] = variants of: B1; assay: self-cleavage kobs at 160 uM GlcN6P; higher = faster cleavage; RNA array
How it was run: as §1

glucosamine-6-phosphate [3] = variants of: B1; assay: self-cleavage kobs at 640 uM GlcN6P; higher = faster cleavage; RNA array
How it was run: as §1

glucosamine-6-phosphate [4] = variants of: B1; assay: self-cleavage kobs at 2500 uM GlcN6P; higher = faster cleavage; RNA array
How it was run: as §1

glucosamine-6-phosphate [5] = variants of: B1; assay: self-cleavage kobs at 10000 uM GlcN6P; higher = faster cleavage; RNA array
How it was run: as §1

Variant	self-cleavage kobs at 40 uM GlcN6P (glucosamine-6-phosphate [1]) [s⁻¹]	self-cleavage kobs at 160 uM GlcN6P (glucosamine-6-phosphate [2]) [s⁻¹]	self-cleavage kobs at 640 uM GlcN6P (glucosamine-6-phosphate [3]) [s⁻¹]	self-cleavage kobs at 2500 uM GlcN6P (glucosamine-6-phosphate [4]) [s⁻¹]	self-cleavage kobs at 10000 uM GlcN6P (glucosamine-6-phosphate [5]) [s⁻¹]
C34A C70U	< 1e-05	< 1e-05	–	–	–
C16G G35C	< 1e-05	–	< 1e-05	< 1e-05	< 1e-05
G37U A52U U57A	< 1e-05	–	–	–	–
A15C U47G G51A U56C	< 1e-05	–	–	< 1e-05	< 1e-05
U57C G59U C61U	< 1e-05	–	–	–	< 1e-05
A14C G43C	< 1e-05	–	< 1e-05	< 1e-05	–
C50G U65A	6.61e-05 ± 1.9e-05	6.9e-05 ± 3e-05	0.00136 ± 0.00038	0.000972 ± 0.00037	–
U30C A42U G44A A48G G59A	< 1e-05	–	–	< 1e-05	–
C11G C50A A52U G63A	< 1e-05	–	–	–	< 1e-05
A36U A64G U69A C71G	6.16e-05 ± 2.9e-05	–	–	–	–
A42C U55A U57C	< 1e-05	–	–	–	–
G32U G41C	< 1e-05	< 1e-05	–	–	–
C10U A12G G13C	< 1e-05	–	–	–	< 1e-05
G7A A12G U47A	< 1e-05	–	–	< 1e-05	–
G29C G43U C67U	< 1e-05	–	–	–	< 1e-05
C10G U69A	< 1e-05	–	–	–	–
A48U A52U C67A	< 1e-05	–	–	–	< 1e-05
C11G A48U G63C	< 1e-05	–	–	–	< 1e-05
C16A G29A A36U U65A C71U	< 1e-05	–	< 1e-05	–	–
U30C U57C	< 1e-05	–	< 1e-05	–	–
G32C A39G G43A	< 1e-05	–	–	–	–
C34U A48G	< 1e-05	< 1e-05	< 1e-05	< 1e-05	< 1e-05
G9A G35U	< 1e-05	< 1e-05	< 1e-05	–	–
G44A G59C	< 1e-05	< 1e-05	< 1e-05	< 1e-05	< 1e-05
U46G C68G C71G	9.54e-05 ± 3.1e-05	–	–	–	–
A36G G62C C67U	< 1e-05	–	–	–	< 1e-05

Variant	self-cleavage kobs at 40 uM GlcN6P (glucosamine-6-phosphate [1]) [s⁻¹]	self-cleavage kobs at 160 uM GlcN6P (glucosamine-6-phosphate [2]) [s⁻¹]	self-cleavage kobs at 640 uM GlcN6P (glucosamine-6-phosphate [3]) [s⁻¹]	self-cleavage kobs at 2500 uM GlcN6P (glucosamine-6-phosphate [4]) [s⁻¹]	self-cleavage kobs at 10000 uM GlcN6P (glucosamine-6-phosphate [5]) [s⁻¹]
C8G G51U A64G	< 1e-05	–	–	–	< 1e-05
G38C G43U	< 1e-05	< 1e-05	< 1e-05	< 1e-05	< 1e-05
A42U G51A	< 1e-05	–	< 1e-05	–	–
G9C G43A	< 1e-05	–	–	–	< 1e-05
A12C U49C U56G C58G	< 1e-05	–	< 1e-05	–	< 1e-05
C8G A33U	< 1e-05	< 1e-05	< 1e-05	< 1e-05	< 1e-05
G41C G44U	< 1e-05	< 1e-05	< 1e-05	< 1e-05	< 1e-05
U31C G44A	< 1e-05	< 1e-05	–	–	–
U54A C68U	0.000391 ± 6.1e-05	0.000218 ± 4.6e-05	0.000767 ± 0.00017	0.000405 ± 0.00011	–
A36G G51A A52G	< 1e-05	–	–	–	–
A15U C34A A64U C68A	< 1e-05	–	–	–	< 1e-05
U55A A64U C68U	< 1e-05	–	–	–	–
G9U C11G	< 1e-05	–	–	< 1e-05	< 1e-05
G40A U69A	< 1e-05	–	< 1e-05	< 1e-05	< 1e-05
G35C A42G U49A G66C	< 1e-05	–	–	< 1e-05	< 1e-05
G7C A33U A48U	< 1e-05	–	–	–	–
A6C A36C	< 1e-05	< 1e-05	–	–	< 1e-05
A14U G37U G59U C61A	< 1e-05	–	–	–	–
U45A C70G	0.000107 ± 4.1e-05	0.000105 ± 3.6e-05	0.000198 ± 7.9e-05	0.00053 ± 0.00019	0.000826 ± 0.00032
G7A A12U A33C C58A A64G	< 1e-05	–	–	–	< 1e-05
C8G A39G G59C	< 1e-05	–	–	–	< 1e-05
C16A G60U	< 1e-05	< 1e-05	< 1e-05	< 1e-05	< 1e-05
G7A G60A	< 1e-05	< 1e-05	< 1e-05	–	< 1e-05
U57C G62U C70A	< 1e-05	–	–	–	–
A6C G7U G35A C58U G60A	< 1e-05	–	< 1e-05	–	–
